Experimental data from paper PMC3724679, “Biochemical Characterization of a Polysialyltransferase from Mannheimia haemolytica A2 and Comparison to Other Bacterial Polysialyltransferases” (PLoS ONE, 2013).

Test system: CC(=O)N[C@H]1[C@H]([C@H](O)[C@H](O)CO)O[C@](OP(=O)(O)OC[C@H]2O[C@@H](n3ccc(N)nc3=O)[C@H](O)[C@@H]2O)(C(=O)O)C[C@@H]1O
Test: purified protein
Conditions: 0.5 mM GD3-FCHASE acceptor, 50 mM HEPES pH 7.5, 10 mM MgCl2, 30°C, CMP-Neu5Ac varied 0.25-20 mM

PSTMh (MalE-Δ20PSTMh) (Mannheimia haemolytica)
Km: 1100 ± 50 µM | Vmax: 1520 µmol/min/mg
